From paper PMC9040831 (mBio, 2022) come the findings set out here.

The target in one series is T1, AmtB (EcAmtB) (Escherichia coli, UniProt P69681).
T1 construct: AmtB(His)6 from pET22b(+), expressed in E. coli C43, purified, reconstituted into liposomes; homotrimer; 1U7G for the simulations only
T1 sequence (P69681 23-428): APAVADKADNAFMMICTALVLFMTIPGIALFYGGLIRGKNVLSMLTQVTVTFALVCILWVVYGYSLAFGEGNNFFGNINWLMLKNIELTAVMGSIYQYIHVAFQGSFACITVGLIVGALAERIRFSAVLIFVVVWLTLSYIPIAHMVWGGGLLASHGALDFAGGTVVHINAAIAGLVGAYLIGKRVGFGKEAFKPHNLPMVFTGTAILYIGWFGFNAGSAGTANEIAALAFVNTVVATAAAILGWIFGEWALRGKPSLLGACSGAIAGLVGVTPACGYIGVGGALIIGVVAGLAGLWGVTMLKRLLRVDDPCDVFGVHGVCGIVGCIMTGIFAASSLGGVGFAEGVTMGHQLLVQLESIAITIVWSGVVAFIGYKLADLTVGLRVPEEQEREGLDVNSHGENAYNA
Briefly: solid supported membrane electrophysiology (SSME), proteoliposomes. It counts as biochemical. The conditions noted are these: read-out: Ammonium; transport; maximum transient current amplitude. From the text:
(§1) solid supported membrane electrophysiology (SSME), proteoliposomes on AmtB (EcAmtB)

Substrate in series [1]: CN
The description is as above. It counts as biochemical, Escherichia coli. The note with it: transport; maximum transient current amplitude.
Excerpt: as §1

Substrate in the series “purified protein”: N
Briefly: purified protein. The conditions noted are these: transport; maximum transient current amplitude.

As to `N` [ammonium], the Km on AmtB (EcAmtB) was determined as 0.8 ± 0.1 mM.

B1: AmtB (EcAmtB) (Escherichia coli K-12) (protein)
chain: APAVADKADNAFMMICTALVLFMTIPGIALFYGGLIRGKNVLSMLTQVTVTFALVCILWVVYGYSLAFGEGNNFFGNINWLMLKNIELTAVMGSIYQYIHVAFQGSFACITVGLIVGALAERIRFSAVLIFVVVWLTLSYIPIAHMVWGGGLLASHGALDFAGGTVVHINAAIAGLVGAYLIGKRVGFGKEAFKPHNLPMVFTGTAILYIGWFGFNAGSAGTANEIAALAFVNTVVATAAAILGWIFGEWALRGKPSLLGACSGAIAGLVGVTPACGYIGVGGALIIGVVAGLAGLWGVTMLKRLLRVDDPCDVFGVHGVCGIVGCIMTGIFAASSLGGVGFAEGVTMGHQLLVQLESIAITIVWSGVVAFIGYKLADLTVGLRVPEEQEREGLDVNSHGENAYNA
notes: AmtB(His)6 from pET22b(+), expressed in E. coli C43, purified, reconstituted into liposomes; homotrimer; 1U7G for the simulations only
B1: the Km in series [1] was 49.86 ± 4.76 mM.

B2: AmtB (EcAmtB) (Escherichia coli K-12; H190D) (protein)
chain: APAVADKADNAFMMICTALVLFMTIPGIALFYGGLIRGKNVLSMLTQVTVTFALVCILWVVYGYSLAFGEGNNFFGNINWLMLKNIELTAVMGSIYQYIHVAFQGSFACITVGLIVGALAERIRFSAVLIFVVVWLTLSYIPIAHMVWGGGLLASHGALDFAGGTVVDINAAIAGLVGAYLIGKRVGFGKEAFKPHNLPMVFTGTAILYIGWFGFNAGSAGTANEIAALAFVNTVVATAAAILGWIFGEWALRGKPSLLGACSGAIAGLVGVTPACGYIGVGGALIIGVVAGLAGLWGVTMLKRLLRVDDPCDVFGVHGVCGIVGCIMTGIFAASSLGGVGFAEGVTMGHQLLVQLESIAITIVWSGVVAFIGYKLADLTVGLRVPEEQEREGLDVNSHGENAYNA
notes: as for B1
Regarding B2, the results for the Km (in the series “purified protein”; in series [1]) were 14.02 ± 4.08 mM and 55.09 ± 12.67 mM, respectively.

B3: AmtB (EcAmtB) (Escherichia coli K-12; H190E) (protein)
chain: APAVADKADNAFMMICTALVLFMTIPGIALFYGGLIRGKNVLSMLTQVTVTFALVCILWVVYGYSLAFGEGNNFFGNINWLMLKNIELTAVMGSIYQYIHVAFQGSFACITVGLIVGALAERIRFSAVLIFVVVWLTLSYIPIAHMVWGGGLLASHGALDFAGGTVVEINAAIAGLVGAYLIGKRVGFGKEAFKPHNLPMVFTGTAILYIGWFGFNAGSAGTANEIAALAFVNTVVATAAAILGWIFGEWALRGKPSLLGACSGAIAGLVGVTPACGYIGVGGALIIGVVAGLAGLWGVTMLKRLLRVDDPCDVFGVHGVCGIVGCIMTGIFAASSLGGVGFAEGVTMGHQLLVQLESIAITIVWSGVVAFIGYKLADLTVGLRVPEEQEREGLDVNSHGENAYNA
notes: as for B1
In the case of B3, the Km is 12.87 ± 7.79 mM in the series “purified protein” and 86.00 ± 9.46 mM in series [1].
